Experimental data published in publication PMC11574045, “A cofactor-induced repressive type of transcription factor condensation can be induced by synthetic peptides to suppress tumorigenesis” (The EMBO Journal, 2024).

What was measured:
[1] = tested on: HEK293FT cells transfected with TF library; test: Screening of TF condensates based on fluorescent puncta; format: cell-based; conditions: Figure 1B numerical data; TF library screen, one value per transcriptional factor
Summary of the method: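 HEK293FT cells were reverse-transfected with Flag- or GAL4-tagged TF plasmids (1.6 μg/ml, PEI). After 60 h, cells were cultured 12 h with or without glucose, then fixed and immunostained with anti-Flag or anti-GAL4 and Alexa 488 secondaries. Fluorescent puncta were imaged over fifty random fields per well by high-content imaging.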

GFP-TEAD4 condensates = test: siRNA screening based on TEAD4 condensate; format: cell-based; conditions: Figure 2B source data; siRNA against the named gene; Z score based analysis
Procedure: siRNA reagents were obtained from the Dharmacon Human ON-TARGETplus siRNA Smartpool Library (Thermo) as described previously (Tang et al, [2020]). […] Lipofectamine RNAiMAX reagent (Thermo) at a volume of 0.05 μl per well was then added to the siRNA-loaded plates. Subsequently, cells expressing GFP-TEAD4 were seeded into the plate at 2000 cells per well. After subsequent transfection for 48 h, the cells were fixed with 4% PFA at room temperature for 30 min. DAPI was used to identify individual nuclei. The plates were kept at 4 °C in the dark before being analyzed using the Opera system. Twenty focus fields per well were scanned and analyzed. Scrambled siRNA was used as an internal reference on each plate.

HGC-27 cells = test: siRNA screening based on cell growth; set-up: species or system human; conditions: Figure 2B source data; siRNA against the named gene; Z score based analysis
Procedure: For screening based on cell growth, HGC-27 cells (2000 per well) were seeded into a 96-well plate overnight. The individual siRNAs targeting 192 BioID-identified genes were then added into each well to a final concentration of 25 nM. After subsequent incubation for 48 h, the cells were analyzed using an ATP-based CellCounting-Lite^TM 2.0 reagent (Vazyme, Nanjing, China) according to the manufacturer’s instructions. The intracellular ATP contents were measured using an EnSight™ Multimode Microplate Reader (Perkin Elmer).

Molecule	Z score of condensed fraction [1]	Z score of condensed fraction (GFP-TEAD4 condensates)	Z score of cell growth (HGC-27 cells)
CREM (protein, UniProt Q03060 1-345, looked up) cAMP-responsive element …: MTMETVESQHDGSITASLTESKSAHVQTQTGQNSIPALAQVSVAGSGTRRGSPAVTLVQLPSGQTIHVQGVIQTPQPWVIQSSEIHTVQVAAIAETDESAESEGVIDSHKRREILSRRPSYRKILNELSSDVPGVPKIEEERSEEEGTPPSIATMAVPTSIYQTSTGQYIAIAQGGTIQISNPGSDGVQGLQALTMTNSGAPPPGATIVQYAAQSADGTQQFFVPGSQVVVQDEETELAPSHMAAATGDMPTYQIRAPTAALPQGVVMAASPGSLHSPQQLAEEATRKRELRLMKNREAAKECRRRKKEYVKCLESRVAVLEVQNKKLIEELETLKDICSPKTDY	-0.7399	–	–
CJUN (protein, UniProt P05412 1-331, looked up) Transcription factor Jun: MTAKMETTFYDDALNASFLPSESGPYGYSNPKILKQSMTLNLADPVGSLKPHLRAKNSDLLTSPDVGLLKLASPELERLIIQSSNGHITTTPTPTQFLCPKNVTDEQEGFAEGFVRALAELHSQNTLPSVTSAAQPVNGAGMVAPAVASVAGGSGSGGFSASLHSEPPVYANLSNFNPGALSSGGGAPSYGAAGLAFPAQPQQQQQPPHHLPQQMPVQHPRLQALKEEPQTVPEMPGETPPLSPIDMESQERIKAERKRMRNRIAASKCRKRKLERIARLEEKVKTLKAQNSELASTANMLREQVAQLKQKVMNHVNSGCQLMLTQQLQTF	2.466	–	–
CRY1 (protein, UniProt Q16526 1-586, looked up) Cryptochrome-1: MGVNAVHWFRKGLRLHDNPALKECIQGADTIRCVYILDPWFAGSSNVGINRWRFLLQCLEDLDANLRKLNSRLFVIRGQPADVFPRLFKEWNITKLSIEYDSEPFGKERDAAIKKLATEAGVEVIVRISHTLYDLDKIIELNGGQPPLTYKRFQTLISKMEPLEIPVETITSEVIEKCTTPLSDDHDEKYGVPSLEELGFDTDGLSSAVWPGGETEALTRLERHLERKAWVANFERPRMNANSLLASPTGLSPYLRFGCLSCRLFYFKLTDLYKKVKKNSSPPLSLYGQLLWREFFYTAATNNPRFDKMEGNPICVQIPWDKNPEALAKWAEGRTGFPWIDAIMTQLRQEGWIHHLARHAVACFLTRGDLWISWEEGMKVFEELLLDADWSINAGSWMWLSCSSFFQQFFHCYCPVGFGRRTDPNGDYIRRYLPVLRGFPAKYIYDPWNAPEGIQKVAKCLIGVNYPKPMVNHAEASRLNIERMKQIYQQLSRYRGLGLLASVPSNPNGNGGFMGYSAENIPGCSSSGSCSQGSGILHYAHGDSQQTHLLKQGRSSMGTGLSGGKRPSQEEDTQSIGPKVQRQSTN	-0.5227	–	–
CREB5 (protein, UniProt Q02930 1-508, looked up) Cyclic AMP-responsive …: MIYEESKMNLEQERPFVCSAPGCSQRFPTEDHLMIHRHKHEMTLKFPSIKTDNMLSDQTPTPTRFLKNCEEVGLFSELDCSLEHEFRKAQEEESSKRNISMHNAVGGAMTGPGTHQLSSARLPNHDTNVVIQQAMPSPQSSSVITQAPSTNRQIGPVPGSLSSLLHLHNRQRQPMPASMPGTLPNPTMPGSSAVLMPMERQMSVNSSIMGMQGPNLSNPCASPQVQPMHSEAKMRLKAALTHHPAAMSNGNMNTMGHMMEMMGSRQDQTPHHHMHSHPHQHQTLPPHHPYPHQHQHPAHHPHPQPHHQQNHPHHHSHSHLHAHPAHHQTSPHPPLHTGNQAQVSPATQQMQPTQTIQPPQPTGGRRRRVVDEDPDERRRKFLERNRAAATRCRQKRKVWVMSLEKKAEELTQTNMQLQNEVSMLKNEVAQLKQLLLTHKDCPITAMQKESQGYLSPESSPPASPVPACSQQQVIQHNTITTSSSVSEVVGSSTLSQLTTHRTDLNPIL	-0.7141	–	–
CRSP6 (protein, UniProt Q9NVC6 1-651, looked up) Mediator of RNA polymerase II …: MSGVRAVRISIESACEKQVHEVGLDGTETYLPPLSMSQNLARLAQRIDFSQGSGSEEEEAAGTEGDAQEWPGAGSSADQDDEEGVVKFQPSLWPWDSVRNNLRSALTEMCVLYDVLSIVRDKKFMTLDPVSQDALPPKQNPQTLQLISKKKSLAGAAQILLKGAERLTKSVTENQENKLQRDFNSELLRLRQHWKLRKVGDKILGDLSYRSAGSLFPHHGTFEVIKNTDLDLDKKIPEDYCPLDVQIPSDLEGSAYIKVSIQKQAPDIGDLGTVNLFKRPLPKSKPGSPHWQTKLEAAQNVLLCKEIFAQLSREAVQIKSQVPHIVVKNQIISQPFPSLQLSISLCHSSNDKKSQKFATEKQCPEDHLYVLEHNLHLLIREFHKQTLSSIMMPHPASAPFGHKRMRLSGPQAFDKNEINSLQSSEGLLEKIIKQAKHIFLRSRAAATIDSLASRIEDPQIQAHWSNINDVYESSVKVLITSQGYEQICKSIQLQLNIGVEQIRVVHRDGRVITLSYQEQELQDFLLSQMSQHQVHAVQQLAKVMGWQVLSFSNHVGLGPIESIGNASAITVASPSGDYAISVRNGPESGSKIMVQFPRNQCKDLPKSDVLQDNKWSHLRGPFKEVQWNKMEGRNFVYKMELLMSALSPCLL	-0.7101	–	–
TEAD4 (protein, UniProt Q15561 1-434, looked up) Transcriptional enhancer …: MEGTAGTITSNEWSSPTSPEGSTASGGSQALDKPIDNDAEGVWSPDIEQSFQEALAIYPPCGRRKIILSDEGKMYGRNELIARYIKLRTGKTRTRKQVSSHIQVLARRKAREIQAKLKDQAAKDKALQSMAAMSSAQIISATAFHSSMALARGPGRPAVSGFWQGALPGQAGTSHDVKPFSQQTYAVQPPLPLPGFESPAGPAPSPSAPPAPPWQGRSVASSKLWMLEFSAFLEQQQDPDTYNKHLFVHIGQSSPSYSDPYLEAVDIRQIYDKFPEKKGGLKDLFERGPSNAFFLVKFWADLNTNIEDEGSSFYGVSSQYESPENMIITCSTKVCSFGKQVVEKVETEYARYENGHYSYRIHRSPLCEYMINFIHKLKHLPEKYMMNSVLENFTILQVVTNRDTQETLLCIAYVFEVSASEHGAQHHIYRLVKE	3.255	1.0247	0.6975
CRSP9 (protein, UniProt O43513 1-233, looked up) Mediator of RNA polymerase II …: MGEPQQVSALPPPPMQYIKEYTDENIQEGLAPKPPPPIKDSYMMFGNQFQCDDLIIRPLESQGIERLHPMQFDHKKELRKLNMSILINFLDLLDILIRSPGSIKREEKLEDLKLLFVHVHHLINEYRPHQARETLRVMMEVQKRQRLETAERFQKHLERVIEMIQNCLASLPDDLPHSEAGMRVKTEPMDADDSNNCTGQNEHQRENSGHRRDQIIEKDAALCVLIDEMNERP	-0.379	–	–
CLOCK (protein, UniProt O15516 1-846, looked up) Circadian locomoter output …: MLFTVSCSKMSSIVDRDDSSIFDGLVEEDDKDKAKRVSRNKSEKKRRDQFNVLIKELGSMLPGNARKMDKSTVLQKSIDFLRKHKEITAQSDASEIRQDWKPTFLSNEEFTQLMLEALDGFFLAIMTDGSIIYVSESVTSLLEHLPSDLVDQSIFNFIPEGEHSEVYKILSTHLLESDSLTPEYLKSKNQLEFCCHMLRGTIDPKEPSTYEYVKFIGNFKSLNSVSSSAHNGFEGTIQRTHRPSYEDRVCFVATVRLATPQFIKEMCTVEEPNEEFTSRHSLEWKFLFLDHRAPPIIGYLPFEVLGTSGYDYYHVDDLENLAKCHEHLMQYGKGKSCYYRFLTKGQQWIWLQTHYYITYHQWNSRPEFIVCTHTVVSYAEVRAERRRELGIEESLPETAADKSQDSGSDNRINTVSLKEALERFDHSPTPSASSRSSRKSSHTAVSDPSSTPTKIPTDTSTPPRQHLPAHEKMVQRRSSFSSQSINSQSVGSSLTQPVMSQATNLPIPQGMSQFQFSAQLGAMQHLKDQLEQRTRMIEANIHRQQEELRKIQEQLQMVHGQGLQMFLQQSNPGLNFGSVQLSSGNSSNIQQLAPINMQGQVVPTNQIQSGMNTGHIGTTQHMIQQQTLQSTSTQSQQNVLSGHSQQTSLPSQTQSTLTAPLYNTMVISQPAAGSMVQIPSSMPQNSTQSAAVTTFTQDRQIRFSQGQQLVTKLVTAPVACGAVMVPSTMLMGQVVTAYPTFATQQQQSQTLSVTQQQQQQSSQEQQLTSVQQPSQAQLTQPPQQFLQTSRLLHGNPSTQLILSAAFPLQQSTFPQSHHQQHQSQQQQQLSRHRTDSLPDPSKVQPQ	-0.2095	–	–
CREBL2 (protein, UniProt O60519 1-120, looked up) cAMP-responsive …: MDDSKVVGGKVKKPGKRGRKPAKIDLKAKLERSRQSARECRARKKLRYQYLEELVSSRERAICALREELEMYKQWCMAMDQGKIPSEIKALLTGEEQNKSQQNSSRHTKAGKTDANSNSW	0.3406	–	–
ABT1 (protein, UniProt Q9ULW3 1-272, looked up) Activator of basal …: MEAEESEKAATEQEPLEGTEQTLDAEEEQEESEEAACGSKKRVVPGIVYLGHIPPRFRPLHVRNLLSAYGEVGRVFFQAEDRFVRRKKKAAAAAGGKKRSYTKDYTEGWVEFRDKRIAKRVAASLHNTPMGARRRSPFRYDLWNLKYLHRFTWSHLSEHLAFERQVRRQRLRAEVAQAKRETDFYLQSVERGQRFLAADGDPARPDGSWTFAQRPTEQELRARKAARPGGRERARLATAQDKARSNKGLLARIFGAPPPSESMEGPSLVRDS	-0.3156	–	–
